The text below walks through data of PMC12207590, “Substrate Specificity of the Organic Cation Transporters MATE1 and MATE2K and Functional Overlap with OCT1 and OCT2” (Journal of Medicinal Chemistry, 2025).

Values joined by “and” are separate entries in the source; they are usually repeats but may differ in a detail not shown here. Equal entries are not always repeated.

In this data set the test system is CN(C)CCc1c[nH]c2ccc(C[C@H]3COC(=O)N3)cc12. Kind of data set: cells, lysate or membranes. The settings on record: other: HEK293, 1 min, net uptake; pH 7.4; 37.0 °C.

Chain of MATE2K (Homo sapiens) (chain, as listed by the source): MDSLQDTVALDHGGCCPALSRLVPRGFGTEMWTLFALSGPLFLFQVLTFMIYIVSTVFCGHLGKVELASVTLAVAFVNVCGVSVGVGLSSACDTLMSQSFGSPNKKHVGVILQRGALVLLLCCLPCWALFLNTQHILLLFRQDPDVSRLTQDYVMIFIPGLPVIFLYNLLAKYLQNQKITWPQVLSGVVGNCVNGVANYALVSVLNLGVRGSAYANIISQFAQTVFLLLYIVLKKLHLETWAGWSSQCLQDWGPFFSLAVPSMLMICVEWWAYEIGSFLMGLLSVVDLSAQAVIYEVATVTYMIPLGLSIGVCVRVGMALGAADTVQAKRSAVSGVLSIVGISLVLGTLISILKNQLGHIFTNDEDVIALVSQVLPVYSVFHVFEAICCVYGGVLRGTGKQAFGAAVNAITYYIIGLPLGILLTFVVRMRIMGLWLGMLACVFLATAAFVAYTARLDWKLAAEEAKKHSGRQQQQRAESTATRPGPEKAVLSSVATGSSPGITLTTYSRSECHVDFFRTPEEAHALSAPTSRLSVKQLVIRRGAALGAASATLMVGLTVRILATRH

For the substance MATE2K (Homo sapiens), the Km was 23.1 µM and 18.3 µM; the Vmax was 0.00074 µmol/min/mg and 0.000992 µmol/min/mg; the Vmax/Km was 32.1 µL/min/mg and 54.2 µL/min/mg.
